Where a chain is given by its changes, count along the chain named. One block for each binder: values may come before it.
Key:
[1] = biological target: T1, cynomolgus monkey FcγRIIa3 extracellular domain, His-tagged (cynomolgus monkey); test: SPR (BIACORE); KD of SG1 divided by KD of the variant
T1 construct: also called cyno FcgRIIa3; cynoFcγRIIa3; not shown: His-tag added to the C-terminus
T1 chain: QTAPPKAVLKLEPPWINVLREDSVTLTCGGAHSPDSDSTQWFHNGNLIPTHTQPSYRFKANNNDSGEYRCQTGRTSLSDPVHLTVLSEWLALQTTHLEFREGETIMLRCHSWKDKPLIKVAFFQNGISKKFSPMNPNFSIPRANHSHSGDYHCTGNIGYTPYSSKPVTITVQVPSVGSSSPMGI
Description: (§1) The kinetic analysis of interactions between these antibodies and FcγR was carried out using BIACORE® T200 or BIACORE® 4000 (GE Healthcare). HBS-EP+ (GE Healthcare) was used as the running buffer, and the measurement temperature was set to 25° C. […] After the measurement, the antibody captured on the chip was washed off by allowing reaction with 10 mM glycine-HCl, pH1.5 and 25 mM NaOH so that the chip was regenerated and used repeatedly. The sensorgrams obtained as measurement results were analyzed by the 1:1 Langmuir binding model using the BIACORE® Evaluation Software to calculate the binding rate constant ka (L/mol/s) and dissociation rate constant kd (1/s), and the dissociation constant KD (mol/L) was calculated from these values. […] Regarding such interactions, KD values were calculated using the following 1:1 binding model described in BIACORE® T100 Software Handbook BR1006-48 Edition AE.

[2] = biological target: T2, human FcγRIIaH extracellular domain, His-tagged (human, UniProt P12318 34-217); test: as above
T2 construct: also called human FcgRIIaH; FcγRIIa (type H); not shown: His-tag added to the C-terminus
T2 sequence: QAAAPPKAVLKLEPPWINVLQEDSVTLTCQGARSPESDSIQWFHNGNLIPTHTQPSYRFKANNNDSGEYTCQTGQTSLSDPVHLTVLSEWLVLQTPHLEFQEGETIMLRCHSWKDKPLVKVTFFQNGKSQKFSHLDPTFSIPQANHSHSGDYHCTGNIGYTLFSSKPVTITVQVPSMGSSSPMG
Description: as §1

[3] = biological target: T3, human FcγRIIaR extracellular domain, His-tagged (human, UniProt P12318 34-217); test: as above
T3 construct: also called human FcgRIIaR; FcγRIIa (type R); not shown: His-tag added to the C-terminus
T3 chain: T2 sequence with H134R
Description: as §1

[4] = biological target: T4, cynomolgus monkey FcγRIIIaS extracellular domain, His-tagged (cynomolgus monkey, UniProt A3RFZ7 21-206 (rhesus entry)); test: SPR (BIACORE), antibody captured on chip, soluble FcgR as analyte, 25 C
T4 construct: also called cyno FcgRIIIaS; cynoFcγRIIIaS; not shown: His-tag added to the C-terminus
T4 sequence (A3RFZ7 21-206): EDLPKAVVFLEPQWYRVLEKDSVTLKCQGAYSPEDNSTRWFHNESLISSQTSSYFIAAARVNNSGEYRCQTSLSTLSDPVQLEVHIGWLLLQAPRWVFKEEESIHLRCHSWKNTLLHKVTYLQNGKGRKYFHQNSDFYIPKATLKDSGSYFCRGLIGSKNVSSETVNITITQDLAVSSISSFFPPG
Description: as §1

[5] = biological target: T5, human FcγRIIIaV extracellular domain, His-tagged (human, UniProt P08637 17-208); test: as above
T5 construct: also called human FcgRIIIaV; not shown: His-tag added to the C-terminus
T5 sequence (P08637 17-208 F176V): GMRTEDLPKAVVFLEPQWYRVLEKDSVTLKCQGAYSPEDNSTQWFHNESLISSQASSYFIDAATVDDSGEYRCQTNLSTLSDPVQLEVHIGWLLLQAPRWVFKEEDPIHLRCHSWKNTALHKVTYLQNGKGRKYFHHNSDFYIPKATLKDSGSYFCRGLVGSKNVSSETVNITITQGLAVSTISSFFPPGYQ
Description: as §1

[6] = biological target: T6, cynomolgus monkey FcγRIIb extracellular domain with C-terminal His-tag (cynomolgus monkey); test: SPR (Biacore), antibody captured, FcgR analyte
T6 construct: also called cyno FcgRIIb; cynoFcγRIIb
T6 chain: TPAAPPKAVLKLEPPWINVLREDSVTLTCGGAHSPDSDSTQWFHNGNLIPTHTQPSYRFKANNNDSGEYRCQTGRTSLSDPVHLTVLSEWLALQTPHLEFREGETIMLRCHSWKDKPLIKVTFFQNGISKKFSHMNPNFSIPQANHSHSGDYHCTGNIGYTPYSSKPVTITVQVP

[7] = biological target: T4, cynomolgus monkey FcγRIIIaS …; test: SPR (BIACORE); KD of SG1 divided by KD of the variant
Description: as §1

[8] = biological target: T7, human FcγRIIb extracellular domain, His-tagged (human, UniProt P31994 43-217); test: as above
T7 construct: also called human FcgRIIb; not shown: His-tag added to the C-terminus
T7 sequence: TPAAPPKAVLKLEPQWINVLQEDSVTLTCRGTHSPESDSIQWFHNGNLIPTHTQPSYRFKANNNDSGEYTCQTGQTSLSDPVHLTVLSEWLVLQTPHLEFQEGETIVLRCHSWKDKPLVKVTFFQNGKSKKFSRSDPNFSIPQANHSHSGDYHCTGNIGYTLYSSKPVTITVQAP
Description: as §1

[9] = biological target: T8, cynomolgus monkey FcγRIIa1 extracellular domain, His-tagged (cynomolgus monkey); test: SPR (BIACORE), antibody captured on chip, soluble FcgR as analyte, 25 C
T8 construct: also called cyno FcgRIIa1; cynoFcγRIIa1; not shown: His-tag added to the C-terminus
T8 chain: T1 chain with T95P, A121T, S128A, P133H, N135D
Description: as §1

[10] = biological target: T1, cynomolgus monkey FcγRIIa3 …; test: as above
Description: as §1

[11] = biological target: T8, cynomolgus monkey FcγRIIa1 …; test: SPR (BIACORE); KD of SG1 divided by KD of the variant
Description: as §1

[12] = biological target: T9, cynomolgus monkey FcγRIIb extracellular domain, His-tagged (cynomolgus monkey); test: SPR (BIACORE), antibody captured on chip, soluble FcgR as analyte, 25 C
T9 construct: also called cyno FcgRIIb; cynoFcγRIIb; not shown: His-tag added to the C-terminus
T9 chain: T6 chain
Description: as §1

[13] = biological target: T2, human FcγRIIaH extracellular domain, …; test: as above
Description: as §1

[14] = biological target: T7, human FcγRIIb extracellular domain, …; test: as above
Description: as §1

[15] = biological target: T5, human FcγRIIIaV extracellular domain, …; test: SPR (BIACORE); KD of SG1 divided by KD of the variant
Description: as §1

[16] = biological target: T10, Mouse latent myostatin (mouse, UniProt O08689 26-267; O08689 268-376, limits assumed); test: SPR (Biacore T200), 37C, pH 7.4, antibody captured on ProA/G
T10 sequence 1: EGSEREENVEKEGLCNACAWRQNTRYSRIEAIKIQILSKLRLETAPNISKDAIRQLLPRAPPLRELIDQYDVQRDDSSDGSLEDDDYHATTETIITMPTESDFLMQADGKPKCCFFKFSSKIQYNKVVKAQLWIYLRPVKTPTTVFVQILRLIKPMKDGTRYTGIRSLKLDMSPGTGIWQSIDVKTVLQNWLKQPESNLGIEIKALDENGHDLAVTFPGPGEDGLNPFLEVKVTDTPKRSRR
T10 sequence 2: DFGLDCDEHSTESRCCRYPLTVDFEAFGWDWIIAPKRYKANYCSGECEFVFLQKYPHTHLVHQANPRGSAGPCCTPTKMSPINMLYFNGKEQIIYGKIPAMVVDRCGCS
Description: ProA/G (Pierce) was immobilized onto all flow cells of a CM4 chip using an amine coupling kit (GE Healthcare). All antibodies and analytes were prepared in ACES pH7.4 or pH5.8 buffer containing 20 mM ACES, 150 mM NaCl, 1.2 mM CaCl₂, 0.05% TWEEN® 20, 0.005% NaN3. […] The sensor surface was regenerated each cycle with 10 mM Glycine HCl pH1.5. Binding affinity was determined by processing and fitting the data to a 1:1 binding model using BIACORE® T200 Evaluation software, version 2.0 (GE Healthcare).

KD fold (SG1 = 1) [1]: 1.7 fold
KD fold (SG1 = 1) [2]: 0.7 fold
KD fold (SG1 = 1) [3]: 0.5 fold
Kd [4]: 850 nM
Kd [5]: 30000 nM
B1: M103205H795-MY260/M103202L889-SK1 (antibody)
heavy: QVTLKESGPVLVKPTETLTLTCTVSGIDLSHDDISWVRQAPGKGLEWVGIISYAGSTYYASWAKGRLTISKDTSKNQVVLTMTNMDPVDTATYYCARGVPAYSHGGDLWGQGTLVTVSSASTKGPSVFPLAPSSKSTSGGTAALGCLVKDYFPEPVTVSWNSGALTSGVHTFPAVLQSSGLYSLSSVVTVPSSSLGTQTYICNVNHKPSNTKVDKKVEPKSCDKTHTCPPCPAPELLMGPSVFLFPPKPKDTLMISRTPEVTCVVVDVSDEDPEVKFNWYVDGVEVHNAKTKPREEQYNSTYRVVSVLTVLHQDWLNGKEYKCKVSNKALPKPIEKTISKAKGQPREPQVYTLPPSREEMTKNQVSLTCLVKGFYPSDIAVEWESNGQPENNYKTTPPVLDSDGSFFLYSKLTVDKSRWQQGNVFSCSVMHEALHNHYTQKSLSLSP
light: DIVMTQSPATLSLSPGERATLSCTSSQSVYHANWLSWFQQKPGQPPKLLIYWASTLAYGVPSRFSGSGSGTDFTLTISSLQPEDAATYYCAGGYGGGRYAFGQGTKVEIKRTVAAPSVFIFPPSDEQLKSGTASVVCLLNNFYPREAKVQWKVDNALQSGNSQESVTEQDSKDSTYSLSSTLTLSKADYEKHKVYACEVTHQGLSSPVTKSFNRGEC

Kd [6]: 390 nM
B2: M103205H795-MY476/M103202L889-SK1 (antibody)
chain 1: B1 heavy with A233Y, M238T
chain 2: B1 light

KD fold (SG1 = 1) [7]: 0.35 fold
KD fold (SG1 = 1) [8]: 0.3 fold
Kd [9]: 1500 nM
Kd [10]: 80000 nM
B3: M103205H795-MY262/M103202L889-SK1 (antibody, human IgG1, kappa, name in EU numbering)
heavy: B1 heavy with M238V
light: B1 light
notes: Asn at EU 236 of MY201 replaced with Val

KD fold (SG1 = 1) [11]: 0.8 fold
KD fold (SG1 = 1) [1]: 2.1 fold
Kd [12]: 260 nM
Kd [13]: 150 nM
Kd [14]: 22000 nM
B4: M103205H795-MY264/M103202L889-SK1 (antibody, human IgG1, kappa, name in EU numbering)
heavy: B1 heavy with M238L
light: B1 light
notes: Asn at EU 236 of MY201 replaced with Leu

KD fold (SG1 = 1) [15]: 0.39 fold
Kd [10]: 73000 nM
B5: M103205H795-MY263/M103202L889-SK1 (antibody, human IgG1, kappa, name in EU numbering)
heavy: B1 heavy with M238Q
light: B1 light
notes: Asn at EU 236 of MY201 replaced with Gln

Kd [16]: 0.314 nM
B6: MS1032LO10-SG1 (antibody, human IgG1, kappa, V domains shown)
VH: QVTLKESGPVLVKPTETLTLTCTVSGIDLSHTDISWVRQAPGKGLEWVGIISYAGKTYYASWAKKRLTISKDTSKNQVVLTMTNMDPVDTATYYCARGVPAYSHGGDLWGQGTLVTVSS
VL: DIVMTQSPATLSLSPGERATLSCTSSQSVYHANWLSWFQQKPGQPPKLLIYWASTLAYGVPSRFSGSGSGTDFTLTISSLQPEDAATYYCAGGYGGGRYAFGQGTKVEIKR
